Assay results taken from patent US7163815B2, “Methods and compositions for NAD(P)(H) oxidases” (Georgia Tech Research Corporation, priority 2002, dated 2007).
“Also recorded” adds a separate entry of the source.

Legend:
[1] = tested on: L. brevis (R)-ADH, G37D mutant; settings: in comparison with the wildtype for NADP^+; cited from earlier work
[2] = biological target: Borrelia burgdorferi NADH oxidase BNOX (BNOXK6; SEQ ID NOs 8, 10 and 12) (Borreliella burgdorferi, UniProt O51670, E220G/N174S); assay: Kinetics of cofactor substrates, BNOX (change of absorbance at 340 nm); type: biochemical; settings: pH 7.0, 30° C., comparable degree of purity to SFNOX
Experimental: (§1) The kinetic analysis was performed on ammonium sulfate fractions from both the sfnox and bnox strains in 50 mM HEPES buffer pH 7.0 at 30° C. The initial enzyme fractions were diluted in 25 mM HEPES pH 7.0 at 30° C.+25% glycerol+5 mM DTT to approximately −0.05 A340 nm/min and retained on ice during analysis. Conversion of NAD(P)H was followed by change of absorbance at 340 nm in a Jasco V-530 spectrophotometer. 3 mL methylacrylate disposable cuvettes were used for all experiments and all runs were performed in triplicate at 30° C. Reactions with NADH were started by adding 3 μL of enzyme preparation, 9 μL for NADPH, to the cuvette and mixing by inversion with parafilm three times. Varying concentrations of NAD(P)H substrate were made my preparing 100 mL of a 300 μM solution in a volumetric flask. Dilutions of this solution were then made to provide the differing substrate concentrations for the kinetic profile.
(§2) Investigation of kinetic parameters with NADH and NADPH cofactors as substrates was performed with the supernatant of the 45% ammonium sulfate cut (40% for BNOXK6) in air-saturated solution at 30° C. and pH 7.0 in 0.1 M HEPES buffer. […] Chi values and error bars reveal high accuracy with <10% error in most cases.

[3] = tested on: NC(=O)C1=CN([C@@H]2O[C@H](COP(=O)(O)OP(=O)(O)OC[C@H]3O[C@@H](n4cnc5c(N)ncnc54)[C@H](O)[C@@H]3O)[C@@H](O)[C@H]2O)C=CC1; assay: as above; type: biochemical, Borrelia burgdorferi; settings: other: BNOX, pH 7.0, 30° C., HEPES buffer, air-saturated solution, 40% ammonium sulfate cut for BNOXK6
Experimental: as §1, §2

[4] = Nox activity assay (NADH oxidation at 340 nm); type: biochemical; settings: overexpressed in E. coli
Experimental: Nox activity assay: Cell-free extracts of the recombinant sfnox and bnox E. coli strains were prepared using ultrasonication described above in 0.1 M TEA pH 7.5+5 mM DTT or β-mercaptoethanol. Nox activities were assayed at 30° C. in a total volume of 1 mL at 340 nm using the following conditions: in 0.1 M TEA pH 7.5 a final concentration of 0.2 mM NADH was dissolved and 10 μl enzyme solution was added. Enzyme reaction was followed for 1 min, activity was calculated using an extinction coefficient ε of NADH of […].

[5] = Activity-pH profile; type: biochemical
Experimental: With the supernatant of the 45% ammonium sulfate cut, an activity—pH profile was measured for SFNOX (FIG. 4). The pH optimum of activity was found at pH 5.2. Below pH 5, activity decreased markedly and reached zero at pH 4.5. Rates at pH 4.5 to 5.2 are reported as net rates, with the chemical decomposition rate at low pH subtracted. […] The sharp activity decline between pH 5.2 and 6.0 coincides with the enzyme's pI, calculated to be pH 5.4.
The pH profile was performed on ammonium sulfate fractions from the sfnoxK2. 100 mM buffer solutions at 30° C. and 200 μM NADH were used for activity analysis as monitored by absorbance at 340 nm. All samples were tested in triplicate in 3 mL methylacrylate disposable cuvettes. The following buffers were utilized within the buffering range of 1 pH unit from their pKa: acetate, N-methylpiperazine, MES (2-[N-morpholino]ethanesulfonic acid hydrate), and bis-tris-propane. Sodium hydroxide or hydrochloric acid were used in preparation of the respective buffers.

[6] = Hydrogen peroxide assay (Amplex Red / resorufin fluorescence); type: biochemical; settings: upon conversion of 300 μM NADH
Experimental: With its detection limit of 100 nM, the test based on 9-acetyl-resorufin (“Amplex Red”) is much more sensitive than the other assays mentioned. Horseradish peroxidase (HRP)-catalyzed oxidation of 9-acetyl resorufin (“Amplex Red”) to fluorescent resorufin was the assay. Amplex Red reacts with H2O2 according to a strict 1:1 stoichiometry. The resorufin assay (λmax: 587 nm (emission), ε=54,000 L(mol-cm)^−1) with its extremely low detection limit of 100 nM resorufin product is much more sensitive than other assays, such as ABTS or o-dianisidine..
For the sensitive assay of putative hydrogen peroxide formation during the reaction of NADH oxidase the horseradish peroxidase-catalyzed oxidation of 9-acetyl resorufin was employed. The Amplex Red hydrogen peroxide assay kit (A-22188) from molecular probes was utilized for these assays. Following the protocols outlined in the kit instructions, a standard curve of H2O2 was prepared in the reaction buffer (50 mM sodium phosphate buffer pH 7.4) from the peroxide stock. The prepared concentrations were 20, 10, 5, and 2.5 μM H2O2 and 0 as a control. A working solution of 100 μM Amplex Red reagent and 0.2 U/ml horseradish peroxidase (HRP) was prepared in the reaction buffer as per kit instructions. As NADH and other reducing reagents are known to interfere with the amplex red assay, the NADH oxidase enzymes were allowed to react with the substrate immediately prior to the Amplex Red analysis. Reaction buffer from the kit was utilized in running enzyme test with 300 μM NADH as well as the controls without NADH. The enzyme conversions were performed by adding 3 μl of enzyme prep to 3 ml of reaction buffer with 300 μM NADH, mixing, and following the conversion until completion by absorbance at 340 nm. 50 μl of the final reaction mixture and standard curve solutions were added to each well in a 96 well fluorescence plate (costar, black, pp). Five replicates were made per sample and standard curve point. […] Fluorescence readings were performed in a BMG FLUOstar Galaxy micro plate reader with 544ex/590em filter settings.

[7] = Kinetics of cofactor substrates, NADPH; type: biochemical; settings: pH 7.0, 30° C.
Experimental: as §1, §2

In the case of `NC(=O)c1ccc[n+]([C@@H]2O[C@H](COP(=O)([O-])OP(=O)(O)OC[C@H]3O[C@@H](n4cnc5c(N)ncnc54)[C@H](O)[C@@H]3O)[C@@H](O)[C@H]2O)c1` [NAD^+], the “KM-value for NAD^+” value [1] is given as “very high”.

`NC(=O)C1=CN([C@@H]2O[C@H](COP(=O)(O)OP(=O)(O)OC[C@H]3O[C@@H](n4cnc5c(N)ncnc54)[C@H](O)[C@@H]3O)[C@@H](O)[C@H]2O)C=CC1` [NADH] showed a vmax [2] of 2.03 U/mg.

“Borrelia burgdorferi NADH oxidase BNOX (BNOXK6; SEQ ID NOs 8, 10 and 12) (Borreliella burgdorferi B31; E220G/N174S)” gave a Km [3] of 22.0 µM.

B1: SFNOXK2: sequenced SFNOX clone with alanine to valine change at position 30 (A30V), SEQ ID 4 (protein)
chain: MKVIVVGCTHAGTFAVKQTIADHPDADVTVYEMNDNISFLSCGIALYLGKEIKNNDPRGLFYSSPEELSNLGANVQMRHQVTNVDPETKTIKVKDLITNEEKTEAYDKLIMTTGSKPTVPPIPGIDSSRVYLCKNYNDAKKLFEEAPKAKTITIIGSGYIGAELAEAYSNQNYNVNLIDGHERVLYKYFDKEFTDILAKDYEAHGVNLVLGSKVAAFEEVDDEIITKTLDGKEIKSDIAILCIGFRPNTELLKGKVAMLDNGAIITDEYMHSSNRDIFAAGDSAAVHYNPTNSNAYIPLATNAVRQGRLVGLNLTEDKVKDMGTQSSSGLKLYGRTYVSTGINTALAKANNLKVSEVIIADNYRPEFMLSTDEVLMSLVYDPKTRVILGGALSSMHDVSQSANVLSVCIQNKNTIDDLAMVDMLFQPQFDRPFNYLNILGQAAQAQADKAHK
For B1, the “activity of the overexpressed constructs” value [4] was “comparable activity”.

B2: SFNOXK6: sequenced SFNOX clone with A30V and lysine to arginine at position 102 (K102R), SEQ ID NO 6 (protein)
chain: MKVIVVGCTHAGTFAVKQTIADHPDADVTVYEMNDNISFLSCGIALYLGKEIKNNDPRGLFYSSPEELSNLGANVQMRHQVTNVDPETKTIKVKDLITNEERTEAYDKLIMTTGSKPTVPPIPGIDSSRVYLCKNYNDAKKLFEEAPKAKTITIIGSGYIGAELAEAYSNQNYNVNLIDGHERVLYKYFDKEFTDILAKDYEAHGVNLVLGSKVAAFEEVDDEIITKTLDGKEIKSDIAILCIGFRPNTGLLKGKVAMLDNGAIITDEYMHSSNRDIFAAGDSAAVHYNPTNSNAYIPLATNAVRQGRLVGLNLTEDKVKDMGTQSSSGLKLYGRTYVSTGINTALAKANNLKVSEVIIADNYRPEFMLSTDEVLMSLVYDPKTRVILGGALSSMHDVSQSANVLSVCIQNKNTIDDLAMVDMLFQPQFDRPFNYLNILGQAAQAQADKAHK
In the case of B2, the “activity of the overexpressed constructs” value [4] is reported as “comparable activity”.

B3: SFNOX: NAD(P)H oxidase isolated from Lactobacillus sanfranciscensis, SEQ ID NO 2; oxidizes NADH and NADPH, reduces oxygen to water (protein)
chain: MKVIVVGCTHAGTFAVKQTIADHPDADVTAYEMNDNISFLSCGIALYLGKEIKNNDPRGLFYSSPEELSNLGANVQMRHQVTNVDPETKTIKVKDLITNEEKTEAYDKLIMTTGSKPTVPPIPGIDSSRVYLCKNYNDAKKLFEEAPKAKTITIIGSGYIGAELAEAYSNQNYNVNLIDGHERVLYKYFDKEFTDILAKDYEAHGVNLVLGSKVAAFEEVDDEIITKTLDGKEIKSDIAILCIGFRPNTELLKGKVAMLDNGAIITDEYMHSSNRDIFAAGDSAAVHYNPTNSNAYIPLATNAVRQGRLVGLNLTEDKVKDMGTQSSSGLKLYGRTYVSTGINTALAKANNLKVSEVIIADNYRPEFMLSTDEVLMSLVYDPKTRVILGGALSSMHDVSQSANVLSVCIQNKNTIDDLAMVDMLFQPQFDRPFNYLNILGQAAQAQADKAHK
With B3 the “pH of the minimum of the bimodal activity-pH curve” value ([5]; 200 μM NADH, 30° C.) was ~5.5, the “pH optimum of activity” value ([5]; 200 μM NADH, 30° C., supernatant of 45% ammonium sulfate cut) was 5.2 and the “activity at pH 4.5” value ([5]; pH 4.5, net rate) was “zero”. For the same molecule, the “activity at pH 5.5” value ([5]; pH 5.5) was “instantaneously lose activity”, the H2O2 yield [6] was 0.2% and the “resorufin above background (equal concentration of H2O2 formed)” value [6] was 0.6 µM. For the same molecule, the “acceptance of NADPH as a substrate” value [7] was “accept NADPH as a substrate with good reactivity” and the “activity with NADPH relative to activity towards NADH” value ([7]; ratio of vmax) was “about 30%”.

B4: BNOX: NADH oxidase from Borrelia burgdorferi, SEQ ID NO 8; reacts with NADH only (protein)
chain: MMKIIIIGGTSAGTSAAAKANRLNKKLDITIYEKTNIVSFGTCGLPYFVGGFFDNPNTMISRTQEEFEKTGISVKTNHEVIKVDAKNNTIVIKNQKTGTIFNNTYDQLMIATGAKPIIPPINNINLENFHTLKNLEDGQKIKKLMDREEIKNIVIIGGGYIGIEMVEAAKNKRKNVRLIQLDKHILIDSFDEEIVTIMEEELTKKGVNLHTNEFVKSLIGEKKAEGVVTNKNTYQADAVILATGIKPDTEFLENQLKTTKNGAIIVNEYGETSIKNIFSAGDCATIYNIVSKKNEYIPLATTANKLGRIVGENLAGNHTAFKGTLGSASIKILSLEAARTGLTEKDAKKLQIKYKTIFVKDKNHTNYYPGQEDLYIKLIYEENTKIILGAQAIGKNGAVIRIHALSIAIYSKLTTKELGMMDFSYSPPFSRTWDILNIAGNAAK
In the case of B4, the “resorufin above background (equal concentration of H2O2 formed)” value [6] is reported as “could not detect any resorufin above background” and the “acceptance of NADPH as a substrate” value [7] is reported as “does not accept NADPH as a substrate; also recorded: only accepts NADH”.
